Among the data in publication PMC2853374 (2010) are Kd values, retold here.

In one assay the target is OmpR (Escherichia coli) (UniProt P0AA16). The assay is described as follows: FRET. Conditions: cited from earlier work.
Assay [1] deals with OmpR~P (Escherichia coli) (UniProt P0AA16). The experiment in a line: FRET. Conditions: cited from earlier work.
The next assay has as its target T1, OmpR (Escherichia coli, UniProt P0AA16).
T1 chain: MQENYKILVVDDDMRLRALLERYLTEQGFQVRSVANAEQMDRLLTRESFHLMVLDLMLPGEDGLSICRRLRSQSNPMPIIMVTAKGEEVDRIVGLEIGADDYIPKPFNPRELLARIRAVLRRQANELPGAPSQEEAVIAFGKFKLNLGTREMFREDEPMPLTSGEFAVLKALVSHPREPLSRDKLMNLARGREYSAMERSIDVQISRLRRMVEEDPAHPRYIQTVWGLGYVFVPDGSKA
The assay is described as follows: fluorescence anisotropy. A general note: Fluorescence polarisation rises when a labelled molecule tumbles more slowly, as on binding a larger partner.

EnvZ-GFP (from UniProt P0AEJ4): the Kd is 0.5 µM with OmpR (Escherichia coli) and 1.6 µM in assay [1].

B1: EnvZc cytoplasmic domain (protein)
chain: FNHMAAGVKQLADDRTLLMAGVSHDLRTPLTRIRLATEMMSEQDGYLAESINKDIEECNAIIEQFIDYLRTGQ
As for B1, the affinity with OmpR, expressed as Kd, was 0.425 µM.

B2: EnvZc cytoplasmic domain (protein)
chain: FNHMAAGVKQLADDRTLLMAGVSHDLRTPLTRIRLATEMMSEQDGYLAESINKDIEECNAIIEQFIDYLRTGQ
modifications: ompC DNA (C1-C2-C3)
Molecule B2 returned a Kd in the assay with OmpR of 0.385 µM.

In general, Kd refers to the equilibrium constant for the complex coming apart.
